Values quoted from earlier work in article PMC4962041.

Molecular target: ubiquitin (UniProt P0CG48)

Chain of yDdi1 UBL (P40087 1-80): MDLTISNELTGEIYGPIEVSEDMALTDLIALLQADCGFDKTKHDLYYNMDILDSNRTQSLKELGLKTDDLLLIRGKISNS

Kd: 45 µM
Substance: yDdi1 UBL (from UniProt P40087)
